The data set deals with the molecule itself. The data set can be described thus: self-rotation function of X-ray crystallographic data; crystals grown at low pH (0.1 M sodium citrate pH 3.5, 50 mM magnesium sulphate, 50 mM cobalt chloride, 0.1 M NaCl, 13% PEG 4000, 0.9% beta-octylmaltoside); data to 9.0 A, spacegroup P2(1); structure not phased; POLARRFN self-rotation function, data to 12 A.

The values that follow come from PMC4579555, “The Cryo-EM structure of the CorA channel from Methanocaldococcus jannaschii in low magnesium conditions” (Biochimica et Biophysica Acta, 2015).

B1: Methanocaldococcus jannaschii CorA channel (natural protein)
chain: MITVIAIAKDGSIVEPKLDEISFEDYRLIWIDCYDPKDEELYKLSKKIGISVSDLQIGLDEQEIPRVEEDEDFYLIIYKAPLFEEDITTTSLGIYIKNNLLLTIHSDKIKAIGRLHKLISTKKPRIVFERGIGFLLYHILNEITRSYSRILMNLEDELEELEDKLLAGYDREVMEKILGLRKTLVYFHKSLIANRDVLVLLKRKYLPITTKEDRENFEDLYYDTLQLIDMSATYREVLTSMMDITLSLENIKMNQIMKILTMVTTIFAVPMWITGIYGMNFSYLPLANNPQGFWLVMALMVVIIMIFVYIFRRSGWI
notes: CorA magnesium channel of Methanocaldococcus jannaschii (MjCorA); holds the N-terminal, conical and trans-membrane domains; also called MjCorA; source: final buffer 200 mM NaCl, 20 mM Tris/HCl pH8, 0.04% DDM
For B1, the stoichiometry N – broadly, the number of molecules, sites or subunits per partner or assembly – is 5.
